Common to all, as to assay: purified protein, by the assay type
Substrate in series [1]: CC(=O)NCCCC[C@H](NC(C)=O)C(N)=O
More on the design: discontinuous LC-MS deacetylation assay, dansylated product quantified, steady-state kinetics. The conditions noted are these: 50.0 °C. As for the experimental part:
To study steady-state kinetics with non-fluorogenic peptide substrates and acetylpolyamines, a discontinuous LC–MS was employed based on the protocol of assaying nonfluorogenic acetyllysine peptide substrates for HDAC6 (ref. [17]). Assays were performed in triplicate. Briefly, 5 μl of enzyme (0.050–20 μM) in HEPES buffer (20 mM HEPES (pH 7.5), 100 mM NaCl, 5 mM KCl, 1 mM MgCl2) was added to 35 μl of substrate solution to initiate the reaction. […] The deacetylation products were derivatized with dansyl chloride at 50 °C for 2 hrs. The deacetylation products were detected by LC–MS using a Waters SQD equipped with an Acquity UPLC (Waters, Milford, MA, USA) and quantified by using the standard curves generated from the mass signals of the corresponding deacetylated polyamines and peptides. Inhibition of HDAC10 activity was measured by using 0.49 μM zHDAC10 with 192 μM N^8-acetylspermidine. Data were analysed by logistic regression for IC50 determination and the inhibition constant Ki was calculated based on the Cheng-Prusoff equation, Ki=IC50 / (1+[S]/KM)[45]. Assays were performed in triplicate at room temperature.

Substrate in series [2]: CC(=O)NCCCC[C@H](NC(=O)[C@H](C)NC(=O)CNC(C)=O)C(=O)Nc1ccc2c(C)cc(=O)oc2c1
More on the design: fluorogenic AMC-conjugated acetyllysine peptide deacetylation, steady-state kinetics.

Substrate in series [3]: CC(=O)NCCCCNCCCN
More on the design: steady-state kinetics of acetylpolyamine deacetylation, discontinuous LC-MS after dansyl chloride derivatization. The conditions noted are these: 50.0 °C. As for the experimental part:
(§1) To study steady-state kinetics with non-fluorogenic peptide substrates and acetylpolyamines, a discontinuous LC–MS was employed based on the protocol of assaying nonfluorogenic acetyllysine peptide substrates for HDAC6 (ref. [17]). Assays were performed in triplicate. Briefly, 5 μl of enzyme (0.050–20 μM) in HEPES buffer (20 mM HEPES (pH 7.5), 100 mM NaCl, 5 mM KCl, 1 mM MgCl2) was added to 35 μl of substrate solution to initiate the reaction. After incubation for 15–60 min at room temperature, the reaction was quenched by addition of 50 μl of 20 mM dansyl chloride dissolved in acetonitrile followed by 10 μl of NaHCO3 (1.6 M, pH 10.0). The deacetylation products were derivatized with dansyl chloride at 50 °C for 2 hrs. The deacetylation products were detected by LC–MS using a Waters SQD equipped with an Acquity UPLC (Waters, Milford, MA, USA) and quantified by using the standard curves generated from the mass signals of the corresponding deacetylated polyamines and peptides. Inhibition of HDAC10 activity was measured by using 0.49 μM zHDAC10 with 192 μM N^8-acetylspermidine. Data were analysed by logistic regression for IC50 determination and the inhibition constant Ki was calculated based on the Cheng-Prusoff equation, Ki=IC50 / (1+[S]/KM)[45]. Assays were performed in triplicate at room temperature. We next tested the PDAC activity of hHDAC10 and zHDAC10 against several polyamine substrates using the LC–MS assay (Fig. 2, Supplementary Fig. 3 and Supplementary Table 1). […] For hHDAC10 and zHDAC10, kcat/KM=2,900±200 and 4,600±300 M^−1 s^−1, respectively; in comparison, N^1-acetylspermidine was a poor substrate with kcat/KM=24±5 and 7±2 M^−1 s^−1, respectively. Substrate specificity trends observed for zHDAC10 and hHDAC10 matched those of the previously reported mammalian N^8-acetylspermidine deacetylase activity. […] As a negative control, we examined the N^8-acetylspermidine deacetylase activity of human and zebrafish HDAC6 (ref. [17]). HDAC6 preferentially catalyses the deacetylation of the peptide substrate RGK(ac)-AMC with a catalytic efficiency >100-fold greater than that for the deacetylation of N^8-acetylspermidine. Therefore, HDAC6 is clearly an acetyllysine deacetylase and HDAC10 is an N^8-acetylspermidine deacetylase. It is notable that the molecular function of HDAC10 coincides with the cellular function of the cytosolic PDAC indicated in Fig. 1a.

Substrate in series [4]: CC(=O)NCCCCCCCCN
More on the design: steady-state kinetics of acetylpolyamine deacetylation, discontinuous LC-MS after dansyl chloride derivatization. The conditions noted are these: 50.0 °C. As to the method: as §1

Substrate in series [5]: CC(=O)NCCCCCN
Also noted: steady-state kinetics of acetylpolyamine deacetylation, discontinuous LC-MS after dansyl chloride derivatization. As to conditions: 50.0 °C. As to the method:
as §1

Substrate in series [6]: CC(=O)NCCCCN
Also noted: steady-state kinetics of acetylpolyamine deacetylation, discontinuous LC-MS after dansyl chloride derivatization. As to conditions: 50.0 °C. As to the method: as §1

Substrate in series [7]: CCCCNC(C)=O
Also noted: steady-state kinetics of acetylpolyamine deacetylation, discontinuous LC-MS after dansyl chloride derivatization. The conditions noted are these: 50.0 °C. As for the experimental part: as §1

Substrate in series [8]: CC(=O)NCCCCNCCCNC(C)=O
More on the design: steady-state kinetics of acetylpolyamine deacetylation, discontinuous LC-MS after dansyl chloride derivatization. The conditions noted are these: 50.0 °C. As for the experimental part:
as §1

B1: zHDAC10 (Danio rerio) (protein)
chain: ASGSALIFDEEMSRYKLLWTDPACEIEVPERLTVSYEALRTHGLAQRCKAVPVRQATEQEILLAHSEEYLEAVKQTPGMNVEELMAFSKKYNDVYFHQNIYHCAKLAAGATLQLVDSVMKREVRNGMALVRPPGHHSQRSAANGFCVFNNVAIAALYAKKNYNLNRILIVDWDVHHGQGIQYCFEEDPSVLYFSWHRYEHQSFWPNLPESDYSSVGKGKGSGFNINLPWNKVGMTNSDYLAAFFHVLLPVAYEFDPELVIVSAGFDSAIGDPEGEMCALPEIFAHLTHLLMPLAAGKMCVVLEGGYNLTSLGQSVCQTVHSLLGDPTPRISGLGTACDSALESIQNVRNVQSSYWSSFKHLAQSETNPKRPRLDATNGGPKESSEPASESNPKKTAQDIVWPEPLKRMPASVRTVVVPPPGVELTLPKNCQHSGDISESTAKEVQRIRDKHFHDLTDQNILRSLGNIISVLDRMMRSDEVCNGCVVVSDLSVSVQCALQHALTEPAERVLVVYVGDGELPVKTNDGKVFLVQICTKETEDKCVNRLSLCLREGESLTAGFMQALLGLILPVAYEFNPALVLGIVGETAAKTGLMTVWGHMTCLIQGLARGRTLTLLQGYDKDLLELTVSALSGASISPLGPLRALKPEDVEMMEKQRQRLQERWGLLRCTVSES
notes: full-length, residues 2–675
On to B1, for which the Km (as a rule, the concentration of substrate that gives half-maximal velocity) in series [1] worked out at 80 ± 10 µM; in series [2], 22 ± 4 µM; in series [3] it was 130 ± 20 µM; in series [4] it was 170 ± 40 µM; in series [5], 90 ± 30 µM; in series [6] it was 160 ± 50 µM. The Km in series [7] worked out at 900 ± 200 µM; in series [8], 180 ± 40 µM. Moreover, the turnover number (kcat) (usually the number of substrate molecules converted per active site and unit of time at saturation) in series [1] was determined as 0.013 s⁻¹; in series [2] it was 0.00033 ± 2e-05 s⁻¹; in series [3], 0.58 ± 0.03 s⁻¹; in series [4] it was 0.21 ± 0.02 s⁻¹; in series [5], 0.37 ± 0.04 s⁻¹; in series [6] it was 0.7 ± 0.1 s⁻¹. Further, the kcat in series [7] was found to be 0.06 ± 0.02 s⁻¹; in series [8], 0.48 ± 0.08 s⁻¹. Further, the kcat/Km – broadly, the turnover number divided by the Michaelis constant – turned out to be 160 M⁻¹ s⁻¹ in series [1]; 15 ± 2 M⁻¹ s⁻¹ in series [2]; 4600 ± 300 M⁻¹ s⁻¹ in series [3]; 1200 ± 200 M⁻¹ s⁻¹ in series [4]; 3900 ± 300 M⁻¹ s⁻¹ in series [5]; 4200 ± 900 M⁻¹ s⁻¹ in series [6]. The kcat/Km is 60 ± 20 M⁻¹ s⁻¹ in series [7] and 2700 ± 300 M⁻¹ s⁻¹ in series [8].
